Experimental data published in patent EP0480381A1 (NIPPON CHEMIPHAR CO., LTD., dated 1992).

T1: rat endothelin receptor (rat)
T1 sequence (P26684 whole entry, looked up): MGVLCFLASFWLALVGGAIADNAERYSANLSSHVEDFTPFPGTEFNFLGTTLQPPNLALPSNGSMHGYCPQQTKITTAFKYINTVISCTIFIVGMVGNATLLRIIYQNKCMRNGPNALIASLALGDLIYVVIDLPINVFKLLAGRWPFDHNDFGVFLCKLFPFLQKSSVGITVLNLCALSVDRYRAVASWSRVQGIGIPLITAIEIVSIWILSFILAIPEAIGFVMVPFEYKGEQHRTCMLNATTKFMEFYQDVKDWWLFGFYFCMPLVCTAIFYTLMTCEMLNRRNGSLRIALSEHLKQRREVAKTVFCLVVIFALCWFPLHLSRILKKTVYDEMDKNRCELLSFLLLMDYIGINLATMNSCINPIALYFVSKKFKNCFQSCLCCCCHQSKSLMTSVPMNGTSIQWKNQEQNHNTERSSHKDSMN


Molecular target: T1, rat endothelin receptor
Experiment: cell-based or functional assay

| Binder | increase of calcium concentration in cytoplasm (fura-2), EC50 [nM] |
| --- | --- |
| CTCFTYKDKECVYYCHLDIIW (peptide, UniProt P14138 97-117, looked up) [endothelin-3] | ~0.02 |
| CSCSSLMDKECVYFCHLDIIW (peptide, UniProt P05305 53-73, looked up) [endothelin-1] | ~0.02 |
